This note sets out measurements from article PMC3534962.

The nature of data set [1]: co-immunoprecipitation with Flag-PFK1. Conditions: glycan gained; control: WT Flag-PFK1 without OGT overexpression.
The nature of data set [2]: native gel electrophoresis of immunopurified Flag-PFK1. Conditions: glycan gained; control: Flag-PFK1 from untreated 293T cells.
Data set [3] is described as follows: monochlorobimane fluorimetric GSH assay. Conditions: glycan lost; control: WT PFK1 H1299 knock-in cells.
Data set [4] is described as follows: co-immunoprecipitation after OGT overexpression. Conditions: glycan lost; control: WT Flag-PFK1.
Data set [5] is described as follows: glycolytic rate with and without OGT overexpression. Conditions: glycan lost; control: WT PFK1 H1299 knock-in cells.
Another data set in a line: colorimetric NADPH assay. Conditions: glycan lost; control: WT PFK1 H1299 knock-in cells.
Data set [6] can be described thus: lactate production with and without OGT overexpression. Conditions: glycan lost; control: WT PFK1 H1299 knock-in cells.
Data set [7] can be described thus: NADPH level under hypoxic conditions. Conditions: glycan lost; control: WT PFK1 H1299 knock-in cells, hypoxia.
The nature of data set [8]: 14CO2 release from [1-14C]- vs [6-14C]-glucose. Conditions: glycan lost; control: WT PFK1 H1299 knock-in cells.
Data set [9] is described as follows: GSH level under hypoxic conditions. Conditions: glycan lost; control: WT PFK1 H1299 knock-in cells, hypoxia.
Data set [10] can be described thus: proliferation with and without OGT overexpression. Conditions: glycan lost; control: WT PFK1 H1299 knock-in cells, hypoxia.
A short description of data set [11]: untargeted flow-injection mass spectrometry metabolite profiling. Conditions: glycan lost; control: WT PFK1 H1299 knock-in cells.
Data set [12] in a line: [1,2-13C]-glucose labelling, LC-MS. Conditions: glycan lost; control: WT PFK1 H1299 knock-in cells.

B1: phosphofructokinase 1 (PFK1): OGT overexpression (protein)
parent chain: MAAVDLEKLRASGAGKAIGVLTSGGDAQGMNAAVRAVTRMGIYVGAKVFLIYEGYEGLVEGGENIKQANWLSVSNIIQLGGTIIGSARCKAFTTREGRRAAAYNLVQHGITNLCVIGGDGSLTGANIFRSEWGSLLEELVAEGKISETTARTYSHLNIAGLVGSIDNDFCGTDMTIGTDSALHRIMEVIDAITTTAQSHQRTFVLEVMGRHCGYLALVSALASGADWLFIPEAPPEDGWENFMCERLGETRSRGSRLNIIIIAEGAIDRNGKPISSSYVKDLVVQRLGFDTRVTVLGHVQRGGTPSAFDRILSSKMGMEAVMALLEATPDTPACVVTLSGNQSVRLPLMECVQMTKEVQKAMDDKRFDEATQLRGGSFENNWNIYKLLAHQKPPKEKSNFSLAILNVGAPAAGMNAAVRSAVRTGISHGHTVYVVHDGFEGLAKGQVQEVGWHDVAGWLGRGGSMLGTKRTLPKGQLESIVENIRIYGIHALLVVGGFEAYEGVLQLVEARGRYEELCIVMCVIPATISNNVPGTDFSLGSDTAVNAAMESCDRIKQSASGTKRRVFIVETMGGYCGYLATVTGIAVGADAAYVFEDPFNIHDLKVNVEHMTEKMKTDIQRGLVLRNEKCHDYYTTEFLYNLYSSEGKGVFDCRTNVLGHLQQGGAPTPFDRNYGTKLGVKAMLWLSEKLREVYRKGRVFANAPDSACVIGLKKKAVAFSPVTELKKDTDFEHRMPREQWWLSLRLMLKMLAQYRISMAAYVSGELEHVTRRTLSMDKGF
Regarding B1, the oligomerisation entry in data set [1] and in data set [2] was “decreases” each time.

B2: phosphofructokinase 1 (PFK1): S529A (protein)
parent chain: MAAVDLEKLRASGAGKAIGVLTSGGDAQGMNAAVRAVTRMGIYVGAKVFLIYEGYEGLVEGGENIKQANWLSVSNIIQLGGTIIGSARCKAFTTREGRRAAAYNLVQHGITNLCVIGGDGSLTGANIFRSEWGSLLEELVAEGKISETTARTYSHLNIAGLVGSIDNDFCGTDMTIGTDSALHRIMEVIDAITTTAQSHQRTFVLEVMGRHCGYLALVSALASGADWLFIPEAPPEDGWENFMCERLGETRSRGSRLNIIIIAEGAIDRNGKPISSSYVKDLVVQRLGFDTRVTVLGHVQRGGTPSAFDRILSSKMGMEAVMALLEATPDTPACVVTLSGNQSVRLPLMECVQMTKEVQKAMDDKRFDEATQLRGGSFENNWNIYKLLAHQKPPKEKSNFSLAILNVGAPAAGMNAAVRSAVRTGISHGHTVYVVHDGFEGLAKGQVQEVGWHDVAGWLGRGGSMLGTKRTLPKGQLESIVENIRIYGIHALLVVGGFEAYEGVLQLVEARGRYEELCIVMCVIPATISNNVPGTDFSLGSDTAVNAAMESCDRIKQSASGTKRRVFIVETMGGYCGYLATVTGIAVGADAAYVFEDPFNIHDLKVNVEHMTEKMKTDIQRGLVLRNEKCHDYYTTEFLYNLYSSEGKGVFDCRTNVLGHLQQGGAPTPFDRNYGTKLGVKAMLWLSEKLREVYRKGRVFANAPDSACVIGLKKKAVAFSPVTELKKDTDFEHRMPREQWWLSLRLMLKMLAQYRISMAAYVSGELEHVTRRTLSMDKGF
Consider B2, for which the “other: OGT-induced increase in GSH, fold_change” value in data set [3] was “decreases”. Further, the “other: OGT-induced loss of subunit co-immunoprecipitation” value in data set [4] is “abolishes”. The “other: OGT-induced decrease in glycolytic rate, other: percent decrease” value in [5] is on record as “abolishes”. The “other: OGT-induced increase in NADPH, fold_change” value in “colorimetric NADPH assay” was “abolishes”. Further, the “other: OGT-induced decrease in lactate production, other: percent decrease” value in data set [6] is “abolishes”. Also, in data set [7], the “other: cellular NADPH level” value is “decreases”. Also, the “other: OGT-induced increase in PPP flux” value in data set [8] was “abolishes”. For the same protein, the “other: cellular GSH level” value in data set [9] is “decreases”. For the same protein, the “other: OGT-induced increase in proliferation” value in [10] is reported as “abolishes”. Further, the “other: steady-state metabolite concentrations” value in [11] is “decreases”. The “other: OGT-induced increase in PPP flux, fold_change” value in data set [12] was “abolishes”.

B3: phosphofructokinase 1 (PFK1): PUGNAc (protein)
parent chain: MAAVDLEKLRASGAGKAIGVLTSGGDAQGMNAAVRAVTRMGIYVGAKVFLIYEGYEGLVEGGENIKQANWLSVSNIIQLGGTIIGSARCKAFTTREGRRAAAYNLVQHGITNLCVIGGDGSLTGANIFRSEWGSLLEELVAEGKISETTARTYSHLNIAGLVGSIDNDFCGTDMTIGTDSALHRIMEVIDAITTTAQSHQRTFVLEVMGRHCGYLALVSALASGADWLFIPEAPPEDGWENFMCERLGETRSRGSRLNIIIIAEGAIDRNGKPISSSYVKDLVVQRLGFDTRVTVLGHVQRGGTPSAFDRILSSKMGMEAVMALLEATPDTPACVVTLSGNQSVRLPLMECVQMTKEVQKAMDDKRFDEATQLRGGSFENNWNIYKLLAHQKPPKEKSNFSLAILNVGAPAAGMNAAVRSAVRTGISHGHTVYVVHDGFEGLAKGQVQEVGWHDVAGWLGRGGSMLGTKRTLPKGQLESIVENIRIYGIHALLVVGGFEAYEGVLQLVEARGRYEELCIVMCVIPATISNNVPGTDFSLGSDTAVNAAMESCDRIKQSASGTKRRVFIVETMGGYCGYLATVTGIAVGADAAYVFEDPFNIHDLKVNVEHMTEKMKTDIQRGLVLRNEKCHDYYTTEFLYNLYSSEGKGVFDCRTNVLGHLQQGGAPTPFDRNYGTKLGVKAMLWLSEKLREVYRKGRVFANAPDSACVIGLKKKAVAFSPVTELKKDTDFEHRMPREQWWLSLRLMLKMLAQYRISMAAYVSGELEHVTRRTLSMDKGF
With B3, in data set [2], the oligomerisation entry is “decreases”.
